# Results reported in the DeepSol protein solubility set.
# Test: soluble on expression in E. coli; label from the status in PepcDB or PDB records
row,Sequence,soluble on expression in E. coli
1,MGSDKIHHHHHHMTNTIMEQEARTAPQKIAGQLAANADLMQQLGEKLRAFDPRFVMIVGRGSSDHAGVFAKYLFEIEVGVPTFAAAPSVASVYGKTLKLEGGLVIVISQSGRSPDILAQARMAKNAGAFCVALVNDETAPIKDIVDVVVPLRAGEEKAVAATKSYLATLSAILQLASAWTQSESLAAAVSSLPQALQTAVVAEPQLTPESVENVKNLVVLGRGLGYAVSKEIALKLKEVCSIHAEAFSSAEFLHGPVTLVEKKLTIVDVCIGDESYASHIEQIENVSQRGADLVHLNQTSTDIHPRVAPLALLQRFYIDVAAVAIARGIDPDQPAGLKKVTQTL,not soluble
2,MPFDFETVLNRRHTNAVKWDVADDELPMWVADMDFETAPVIKQALIKRAQFGVFGYEEVPMAYYEAVADWWATEHNFRPQIEWLMFCTGVVPAISSIVRKMTAAGDNVLVQAPVYNIFYHSIENNGRHTLSSDLVARDASYAIDWDDLTKKLADPLTTMMILCNPQNPIGVVWSRATLQRLGELCLKYHVLVVADEIHCDLTLNGNAYTPFSSLTAPVAHNSISCISPSKTFNVAALHAATLIIPDAHVRALVSRGINNDELAEPNSFAIPASIAAYTEGHDWVAALRTKLAANQRQVQTYLTAELPQVKLVEAQATYLLWLDVSQVTTDSAALAAFIRQRTGLFLSAGDVYRGDGNRFLRLNVACPTTTLTDGLARLKAGITAYQQVQA,not soluble
3,MSLADVILHAFNWPYATVEARAKQIADAGYRKVLVAPAYRSEGSAWWARYQPQDIRLIDNPLGDTAAFKKMVQALASNGVETYADIVFNHMANEAATRSDLNYPGGAVLSQYAANPGRYDSLRLFGTLQSNFLSASDFGPAQCISNYNDAYQVRNYRICGGGSDPGLPDLLGNDWVVQQQRAYLQALKSMGVTGFRVDAAKHMTFDHLNRVFDAGIRSGVYVFGEVITGGGTGNGDYDQFLAPYLQSTPHAAYDFPLFNAVRNAFAIGASMQQLVDPAASGQALPGNRAVTFAVTHDIPNNAGFRYAILDPVDETLAYAYLIGRNGGMPMLYTDNNESGDNRWVNAYLRDDLRRMIGFHNGVQGTDMQVLSSSSCHILFRRGSLGIVGINKCGNPVTTTVGMNNSVLYWNADYVDALGSGNVVRISSSSYTFTLPARGARMWRREGHHHHHH,not soluble
4,MSNWGDYQLGGLAPPTEPWLAIRPFLQLPHDFKIVFLSIERGLTRKNDFKTVRQLQKWAYCKPRFCGRGQSPELVIPPVGHPPSSSGLIVKIKQMIRSCVRLASQSTNKLLIFSSLSRNSQLYISMSSSDLGRGFKQGRGTGDSGQSSLYNNERRWKDDDTFNALGATDELSSFLGVCGASAQNDGSMSDVVETLTRLQCCLQDVGAHLATPPKNSSERKQKKTAFDIAMVEWINAEIDRYGDALPAIRQFILSGGGMTSAQLQYSRAICRRAERSIVPLMRDEDVDPMALKFLNRMSDLLFVLGRTACMRNKNEELTYLRPDSFTNLKWDRKSLHEKK,not soluble
5,MKSTGETLNIEEKVFAIADQFDHQGKIVQIKPFGNGNINDTFLVDLDGQTQTSFILQRINHQVFKNPAAVMGNMVRVTTHIKQKLQRQPLERPWLMPEVILTKNNQDHWDSGTGEFWRAISFIAGSESFDILTDPAQAKEVGTALGIFHQLLSDLSPSQLVDTLPGFHHTPIYLQQYQRALAQNPKLTGSLGPEINHCQRVIKTWLDQCGVLETAKAQGQLPLRLMHGDPKVNNILFDRQSGKAVSVIDLDTTKPGLIHYDLGDCLRSGCNLLGEETENWSAVEFDLDLCRAILEGYLPQCQHFLTAADYDYLCPAIVLISFELGLRFFTDYLNGDRYFKVKYPEHNLIRALVQFQLASHIQSQEDAIRRMIEDIRGLEHHHHHH,not soluble
6,KGKDDAGEKPDEPADPCGLALQVQAQGTLEQLEAELTGAGQGLALEARAGLLPQAPFPLRTASLKLTREDKSSLAATLDWQPQPGQPGRDRVVATFEAERLDLQRLAGEAIPPAMLSARGGLDAEVDDLSSLHRATLTLDVTKGSSWNRHPLAGKVAASVSALGDPPGAFATAAPAQPHALPGGLWVDQLDVDLQLGPNRVRAQGKLDERAGALKLDAQAPRLDAFWPGIPGAASVKAALDGALARHRGRIEAAYTPADARARVLGRARAQAQLEFSGGWGAGPAAEGAAAGWRGSVSRLTADSAGFALALERPVTLAYVPEALAPQWQWQVGATTLALTFPDKQRVALAHAASRGGAGRWETAGRADALVITAAMVRQILVALDPEAVARAERDSGSPVNAPVPAAQRRISLDASWDLKFAGALAGKVRVARRDGDLRIPGDPPIPLGLRTLVLEANATPTGGQASRLDARLDMATARMGAINGTASATLGGLALDPRQPIRVALDADVTDLAWLGLFVGDTLEVGGMLKANVRAQGSLDGKWNASGTVNGDKLRVVRIDDGVRLIDGMLRARLQDDRVILDSLRFPASLRVMPAEWRTREWVSTNPDAKGGYLEATGQWELSAARGQVRLQLHRFPALQRSDRYGMVSGVVTLDAALPRISINGDITADAGWVSLEILQGVPTLDDDVKVVRAGQKNAQGDGPPLQIDMNLKVDMGPRFYITGMGLDAGLLGSIQIRLQEGRLTGYGALRTRGGGIEAYGQKLRLRRGTLTFQGRLDNPLLDIEALRTGEQVEAGVRVAGTAQRPRIDLVSYPDVSDVEKLSWLVLGRGPDASGGDTALLLSVGTALLGGGQPFYKQFGLDDVSVRSGAIGSSGSLLPDRTVAAGVNRDSDADLATQFLVASKRFANGITLSVEQALAGSETVGRA,not soluble
7,ISTEEAAPDGPPMDVTLQPVTSQSIQVTWKAPKKELQNGVIRGYQIGYRENSPGSNGQYSIVEMKATGDSEVYTLDNLKKFAQYGVVVQAFNRAGTGPSSSEINATTLE,soluble
8,MGSDKIHHHHHHMINRSLGISCGLVIVLAGCSETTTKDSSKTVPKTSETVKSDIIFKNLRTPWNIEKNQEVFYITEREGTIVKGTEGNYSRTDLELTEPVVAQGEGGLLGMALDPDFSKNRTAYVYHTYEKDGALWNRIIAIKEEKESWKEQRVLLDKIPGATIHNGGRIEIGPDGLLYVTAGDAAVPENAQKLSSLSGKILRMKLDGKPADGNVKEYIYSYGHRNPQGLVFVDQTLYATEHGQNGHDEINRIEQKNYGWPLIEGTEKQQGLVTPWYEVGEKSIAPSGVAEQNGKLYFGTLVGQSLRSIETESSKVEQIVTDRGRIRDVMTDGKELYYVTNNTDGRGNSSDEDDVLVRLKP,not soluble
9,MGSDKIHHHHHHMNNQEKNMLGFNQDEYLTSAREIIAARQKAEQVADEIYQAGFSSLFFASVGGSLAPMMAINEFAKELTTLPVYVEQAAELIHKGNKRLNKDSVVITLSKSGDTKESVAIAEWCKAQGIRVVAITKNADSPLAQAATWHIPMRHKNGVEYEYMLLYWLFFRVLSRNNEFASYDRFASQLEILPANLLKAKQKFDPQADAIASRYHNSDYMMWVGGAEMWGEVYLFSMCILEEMQWKRTRPVSSAEFFHGALELLEKDVPLILVKGEGKCRALDERVERFASKITDNLVVIDPKAYALDGIDDEFRWIMAPCVVSTLLVDRLAAHFEKYTGHSLDIRRYYRQFDY,soluble
10,MGSDKIHHHHHHILVKNKIDNEFNWISMKEEQKLNVPIENQMPDLPNGCEVTSLSMLMNYYGIRVTKNELAQNIQHVSSFTNNGKYRGNPNQGFVGYMSIENAGWCVYNGPLYNVARKYTNRIQNATGSDFLSILKLVSDGHPVLIITTTTFNRVNNMQTWETNTGKVNVTPSSHACVITGYDKKKRIVYLNNPYGIKNQAVNWNNLENSYNQQGKQALYIK,not soluble
11,GAMGSKISNIFEDVEFCVMSGTDSQPKPDLENRIAEFGGYIVQNPGPDTYCVIAGSENIRVKNIILSNKHDVVKPAWLLECFKTKSFVPWQPRFMIHMCPSTKEHFAREYDCYGDSYFIDTDLNQLKEVFSGIKNSNEQTPEEMASLIADLEYRYSWDCSPLSMFRRHTVYLDSYAVINDLSTKNEGTRLAIKALELRFHGAKVVSCLAEGVSHVIIGEDHSRVADFKAFRRTFKRKFKILKESWVTDSIDKCELQEENQYLI,soluble
12,MPLTPADVHNVAFSKPPIGKRGYNEDEVDAFLDLVEQELSRLIEENADLRQRVGELDKELADAKKAPRSGSAAPTPAPKAEPARVVEQPKAPAPAPAPAAAAAAAPAQGADAHMQAAKVLGLAQEMADRLTSDAKTESEQLLGNARTNSEQLVSDARTRSETMIADARQKSEALITDAQTRSETQLRQAKEKADALQADAEKKHTEIMATINQQRSVLEGRIEQLKTFEREYRVRLKSYLESQLEELEQRGSAVPVDGGQDSFAQGGSQSNYSQSYAKGNS,not soluble
13,MNNQSQVKVGPPLWLLAELTYDCPLHCPYCSNPTELGDTKDELNTEQWLDVLTQARAMGAVQLGFSGGEPLLRKDLEQMVKHSRELGFYTNLITSGIGLTEKRIAKLKVAGLDHIQISFQGADPEMNDIIAGRGNAFEQKFKMAQSVKAQGYPMVLNFVISKQNISQVEDIMRLSCQLNADYVELATAQYYGWAYDNRDHLLPSQQQLIDAEKIVNEFRDKQQGKGPQFIFVTPDYFEVRPKACMNGWGSTFLTIAPDGSALPCHSAKMLPLKFPNVKDKSISDIWQQDFSFNRFRGDSWMPQPCQSCDEKEKDFGGCRCQAFMMTGDMDKTDPVCSKSPDHHLIQEAIERAKHPKNPLLERVNKRSIKDADIVQIKL,not soluble
14,MPLAVDLLHPEPQREIRCHKLKRLVQHPNSYFMDVKCSGCFKISTVFSHATTVVVCVGCNTVLCQPTRGKAKLTEGCSFRKKQ,not soluble
15,MPGKLLWGDIMELEAPLEESESQKKERQKSDRRKSRHHYDSDEKSETRENGVTDDLDAPKAKKSKMKEKLNGDTEEGFNRLSDEFSKSHKSRRKDLPNGDIDEYEKKSKRVSSLDTSTHKSSDNKLEETLTREQKEGAFSNFPISEETIKLLKGRGVTYLFPIQVKTFGPVYEGKDLIAQARTGTGKTFSFAIPLIERLQRNQETIKKSRSPKVLVLAPTRELANQVAKDFKDITRKLSVACFYGGTSYQSQINHIRNGIDILVGTPGRIKDHLQSGRLDLSKLRHVVLDEVDQMLDLGFAEQVEDIIHESYKTDSEDNPQTLLFSATCPQWVYKVAKKYMKSRYEQVDLVGKMTQKAATTVEHLAIQCHWSQRPAVIGDVLQVYSGSEGRAIIFCETKKNVTEMAMNPHIKQNAQCLHGDIAQSQREITLKGFREGSFKVLVATNVAARGLDIPEVDLVIQSSPPQDVESYIHRSGRTGRAGRTGICICFYQPRERGQLRYVEQKAGITFKRVGVPSTMDLVKSKSMDAIRSLASVSYAAVDFFRPSAQRLIEEKGAVDALAAALAHISGASSFEPRSLITSDKGFVTMTLESLEEIQDVSCAWKELNRKLSSNAVSQITRMCLLKGNMGVCFDVPTTESERLQAEWHDSDWILSVPAKLPEIEEYYDGNTSSNSRQRSGWSSGRSGRSGRSGGRSGGRSGRQSRQGSRSGSRQDGRRRSGNRNRSRSGGHKRSFD,soluble
16,MRGSHHHHHHGSVEYTPWLIAGLGNPGNKYYGTRHNVGFEMVDRIAAEEGITMNTEQSKSLLGIGSIGEVPVLVVKPQSYMNYSGEAIGPLAAYYQVPLRHILLIYDDTSLPNGVLRLQKKGGHGRHNGLQNVIEHLDGRREFPRLSIGIGSPPGKMDPRAFLLQKFSSEERVQIDTALEQGVDAVRTLVLKGFSGSTERFNLVQKYKFHRV,soluble
17,MAEKKKEEKESKETEVFILKLENTTVTFTNPKLGDEVTIASLNLTNPTKDRYAFKIKCTSNQLFKIKSPVGYINPEESLTIPVYHYPATVIPENNKHYFVVYYIKAANTVKEKIPVRDLWKAAASSEGTRRVFIDFKKPELPPTEAEDGKMGDDKKKGKKDDKKEEKDGKKDEKKDGSDEEGKKDEGKGEKKEEKKDDKKDDKKDDKKEEKKEDGAKK,soluble
18,MGSDKIHHHHHHMSHTEVKLKIPFGNKLLDAVCLVPNKSLTYGIILTHGASGDMNLPHLMSLASHLASHGFFCLRFTCKGLNIVHRIKAYKSVLNYLKTSGEYKLAGVFLGGRSMGSRAAASVMCHIEPDDGDDFVRGLICISYPLHHPKQQHKLRDEDLFRLKEPVLFVSGSADEMCEKNLLEKVAQKMQAPHKIHWIEKANHSMAVKGRSTNDVFKEINTQILFWIQEITEMDKKCH,not soluble
